B1: SKAI-DS1 (antibody, V domains shown)
VH: EVQLLESGGGLVQTGGSLRLSCAASGFTFSDYAMSWVRQAPGKGLEWVSWIYSNDGNKYYADSVKGRFTISRDNSKNTLYLQMNSLRAEDTAVYYCARFPVPSWRNTWSSYDAMDVWGQGTLVTV
VL: QSVLTQPPSASGTPGRRVTISCTGSSSNIGSNYVSWYQQLPGTAPKLLIYSDSNRPSGVPDRFSGSKSGTSASLAISGLRSEDEADYYCGTWDASLSGYVFGGGTKLTVL
notes: also called SKAI-DS1 human IgG antibody
B2: SKAI-DS3 (antibody, V domains shown)
VH: EVQLLESGGGLVQPGGSLRLSCAASGFTFSDYSMSWVRQAPGKGLEWVSAISSDSSSTYYADSVKGRFTISRDNSENTLYLQMNSLRAEDTAVYYCAKAILRCIPLGCYYADAMDVWGQGTLVTV
VL: QSVLTQPPSASGTPGQRVTISCTGSSSNIGSNDVTWYQQLPGTAPKLLIYADSKRPSGVPDRFSGSKSGTSASLAISGLRSEDEADYYCGAWDYSLSAYVFGGGTKLTVL
notes: also called SKAI-DS3 human IgG antibody
B3: SKAI-DS15 (antibody, V domains shown)
VH: EVQLLESGGGLVQPGGSLRLSCAASGFTFSDYDMSWVRQAPGKGLEWVSMIYSGSSSKYYADSVKGRFTISRDNSKNTLYLQMNSLRAEDTAVYYCARVTGTCHSGSCYYSDAMDVWGQGTLVTV
VL: QSVLTQPPSASGTPGQRVTISCSGSSSNIGSNDVNWYQQLPGTAPKLLIYDDSNRPSGVPDRFSGSKSGTSASLAISGLRSEDEADYYCGAWDDSLSGYVFGGGTKLTVL
notes: also called SKAI-DS15 human IgG antibody
B4: SKAI-DS66 (antibody, V domains shown)
VH: EVQLLESGGGLVQPGGSLRLSCAASGFTFSDYAMSWVRQAPGKGLEWVSAIYPGGGSTYYADSVKGRFTISRDNSKNTLYLQMNSLRAEDTAVYYCARNLFGFDYWGQGTLVTV
VL: QSVLTQPPSASGTPGQRVTISCTGSSSNIGSNAVYWYQQLPGTAPKLLIYDDSNRPSGVPDRFSGSKSGTSASLAISGLRSEDEADYYCGSWDDSLSAYVFGGGTKLTVL
notes: also called SKAI-DS66 human IgG antibody
B5: SKAI-DS64 (antibody, V domains shown)
VH: EVQLLESGGGLVQPGGSLRLSCAASGFTFSDYSMSWVRQAPGKGLEWVSGIYHSDGSKYYADSVKGRFTISRDNSKNTLYLQMNSLRAEDTAVYYCARFDPVFDYWGQGTLVTV
VL: QSVLTQPPSASGTPGQRVTISCSGSSSNIGSNAVSWYQQLPGTAPKLLIYDNNHRPSGVPDRFSGSKSGTSASLAISGLRSEDEADYYCGSWDDSLNAYVFGGGTKLTVL
notes: also called SKAI-DS64 human IgG antibody

This experiment concerns the target SARS-CoV2 RBD antigen (Genscript) (SARS-CoV2, UniProt P0DTC2 319-541). Kind of experiment: ELISA on RBD antigen, human IgG at 1 µg/mL, O.D. 450 nm.
Turning to B1, the binding result is reported as “binds”. Take B2: the binding result is recorded as “no binding (tested: 1 µg/mL)”.

On to B3, for which the binding result was “no binding (tested: 1 µg/mL)”. Take B4: the binding result was “binds”. Regarding B5, the binding result is on record as “binds”.

(Values after patent US20250002562A1 (Scripps Research, published 2025).)
